Test results as given in publication PMC6917740.

T1: 12 amino acid peptide (HSET-N) labeled with biotin at the N-terminus (bio-…)
T1 sequence (peptide, biotin at the N-terminus): EDGLEPEKKRTR


Molecular target: T1, 12 amino acid peptide (HSET-N) labeled with biotin at the N-terminus (bio-…)
Experiment: SPR; BIAcore T200, 25 °C; biotinylated peptide immobilised on a Series S sensor chip SA at 10-40 RU; antibodies injected 3 min at 30 µl/min in HBS-EP (10 mM HEPES pH 7.4, 250 mM NaCl, 3 mM EDTA, 0.05% P-20); at least five concentrations; 1:2 binding model, which reflects the avidity effect; KD = …

Kd | koff | kon | Binder
2.45 nM | 0.00138 s⁻¹ | 567000 M⁻¹ s⁻¹ | mouse 6C407 IgG2a/κ (antibody, V domains shown) VH: EVQLQQSGAELVKPGASVKLSCTASGFNIKDTYIHWVKQRPEQGLEWIGRIDPANGNTKYDPKFQGKATITADTSSNTAYLQLSSLTSEDTAVYYCARGYGSRSAMDYWGQGTSVTVS VL: DIVLTQSPASLAVSLGQRATISCRASKSVSTSGYSYMLWYQQKPGQPPKLLIYLASNLESGVPARFSGSGSGTDFTLNIHPVEEEDAATYYCQHSRELPWTFGGGTKLEIK
1.24 nM | 0.000632 s⁻¹ | 511000 M⁻¹ s⁻¹ | chimeric mouse-chicken MC-6C407 IgY/λ (antibody, V domains shown) VH: EVQLQQSGAELVKPGASVKLSCTASGFNIKDTYIHWVKQRPEQGLEWIGRIDPANGNTKYDPKFQGKATITADTSSNTAYLQLSSLTSEDTAVYYCARGYGSRSAMDYWGQGTSVTVS VL: DIVLTQSPASLAVSLGQRATISCRASKSVSTSGYSYMLWYQQKPGQPPKLLIYLASNLESGVPARFSGSGSGTDFTLNIHPVEEEDAATYYCQHSRELPWTFGGGTKLEIK
